Experimental data reported in patent US20050182242A1, “Global analysis of protein activities using proteome chips” (priority 2001, published 2005).

B1: MPD2: yeast GST-HisX6 fusion protein on proteome chip (protein, UniProt Q99316 23-277, looked up)
Protein disulfide isomerase …: YSEAVTMVKSIEQYFDICNRNDSYTMIKYYTSWCQHCKTLAPVYEELGELYAKKANKDDTPINFLEVNCEFFGPTLCTDLPGFPIIELVKPRTKPLVLPKLDWSSMKFHERLWQRIKTWFNNPKYQLDTSRVVRFEGSRNLKSLSNFIDTVRSKDTEERFIEHIFDDSRNCNEELRSQQLLCKAGKEYYSDTLSKLYGDVNGLEKERRRLEALIKQNGDDLSKEVKEKLKIIRLQLSLLSHIEDQLEDTSSHDEL
modifications: GST-His6 tag
notes: yeast GST-HisX6 fusion protein on proteome chip
B2: CCT8: yeast GST-HisX6 fusion protein on proteome chip (protein, UniProt P47079 1-568, looked up)
T-complex protein 1 subunit …: MSLRLPQNPNAGLFKQGYNSYSNADGQIIKSIAAIRELHQMCLTSMGPCGRNKIIVNHLGKIIITNDAATMLRELDIVHPAVKVLVMATEQQKIDMGDGTNLVMILAGELLNVSEKLISMGLSAVEIIQGYNMARKFTLKELDEMVVGEITDKNDKNELLKMIKPVISSKKYGSEDILSELVSEAVSHVLPVAQQAGEIPYFNVDSIRVVKIMGGSLSNSTVIKGMVFNREPEGHVKSLSEDKKHKVAVFTCPLDIANTETKGTVLLHNAQEMLDFSKGEEKQIDAMMKEIADMGVECIVAGAGVGELALHYLNRYGILVLKVPSKFELRRLCRVCGATPLPRLGAPTPEELGLVETVKTMEIGGDRVTVFKQEQGEISRTSTIILRGATQNNLDDIERAIDDGVAAVKGLMKPSGGKLLPGAGATEIELISRITKYGERTPGLLQLAIKQFAVAFEVVPRTLAETAGLDVNEVLPNLYAAHNVTEPGAVKTDHLYKGVDIDGESDEGVKDIREENIYDMLATKKFAINVATEAATTVLSIDQIIMAKKAGGPRAPQGPRPGNWDQED
modifications: GST-His6 tag
notes: as for B1
B3: DIN7: yeast GST-HisX6 fusion protein on proteome chip (protein, UniProt Q12086 1-430, looked up)
DNA damage-inducible protein …: MGIPGLLPQLKRIQKQVSLKKYMYQTLAIDGYAWLHRASCACAFELVMNKPTNKYLQFFIKRLQLLKRLKIKPYIVFDGDSLFVKNHTETRRRKKRLENEMIAKKLWSAGNRYNAMEYFQKSVDITPEMAKCIIDYCKLHSIPYIVAPFEADPQMVYLEKMGLIQGIISEDSDLLVFGCKTLITKLNDQGKALEISKDDFSALPENFPLGELSEQQFRNLVCLAGCDYTSGIWKVGVVTAMKIVKRYSEMKDILIQIERTEKLCFSKAFKQQVEFANYAFQYQRVFCPLSNQITTLNNIPKAVTNSHAEIIKIMKCIGSVVERGSGVRKDVINTKNIDHKVHEMIAKGELHPVDMASKLINRERKLKARKLFKVGLLGGESNSFNKKVEQPLVDTQDVLSERENSLDNKNASSIYMTSPAAISGTVPSIF
modifications: GST-His6 fusion tag
notes: as for B1
B4: CAM1: yeast GST-HisX6 fusion protein on proteome chip (protein, UniProt P29547 2-415, looked up)
Elongation factor 1-gamma 1: SQGTLYANFRIRTWVPRGLVKALKLDVKVVTPDAAAEQFARDFPLKKVPAFVGPKGYKLTEAMAINYYLVKLSQDDKMKTQLLGADDDLNAQAQIIRWQSLANSDLCIQIANTIVPLKGGAPYNKKSVDSAMDAVDKIVDIFENRLKNYTYLATENISLADLVAASIFTRYFESLFGTEWRAQHPAIVRWFNTVRASPFLKDEYKDFKFADKPLSPPQKKKEKKAPAAAPAASKKKEEAKPAATETETSSKKPKHPLELLGKSTFVLDDWKRKYSNEDTRPVALPWFWEHYNPEEYSLWKVTYKYNDELTLTFMSNNLVGGFFNRLSASTKYMFGCLVVYGENNNNGIVGAVMVRGQDYVPAFDVAPDWESYDYAKLDPTNDDDKEFINNMWAWDKPVSVNGEPKEIVDGKVLK
modifications: GST-His6 tag
notes: as for B1
B5: RPL9B: yeast GST-HisX6 fusion protein on proteome chip (protein, UniProt P51401 1-191, looked up)
Large ribosomal subunit …: MKYIQTEQQIEIPEGVTVSIKSRIVKVVGPRGTLTKNLKHIDVTFTKVNNQLIKVAVHNGDRKHVAALRTVKSLVDNMITGVTKGYKYKMRYVYAHFPINVNIVEKDGAKFIEVRNFLGDKKIRNVPVRDGVTIEFSTNVKDEIVLSGNSVEDVSQNAADLQQICRVRNKDIRKFLDGIYVSHKGFIVEDM
modifications: GST-HisX6 tag
notes: as for B1
B6: GFD1: yeast GST-HisX6 fusion protein on proteome chip (protein, UniProt Q04839 1-188, looked up)
mRNA transport factor GFD1: MPLESIWADAPDEEPIKKQKPSHKRSNNNKKNNNSRWSNESSSNNKKKDSVNKVKNNKGNHESKTKNKIKETLPREKKPPHSQGKISPVSESLAINPFSQKATEISPPPVSPSKMKTTKTQSKQDTASKMKLLKKKIEEQREILQKTHHKNQQQQVLMDFLNDEGSSNWVDDDEEELILQRLKTSLKI
modifications: GST-His6 tag
notes: as for B1
B7: DFG5: yeast GST-HisX6 fusion protein on proteome chip (protein, UniProt Q05031 27-437, looked up)
Mannan …: MDLDTTSKTSICDATALIQGGMLDYYEGTRYGGTVGMFQSPYYWWHAGEAFGGMLENWFLCENDTYQELLYDALLAQTGSNYDYIPSNQTMVEGNDDQGIWGITVMGAVERNFTDPGDGKPGWLAMVQAVFNTMYSRWDSEHCGGGLRWQIFTWNSGYNYKNTVSNACLFQIAARLGRYTGNTTYLEVAEQVFDWLVDVGYVVLNDTANVFDGAEIDTNCTDITKIEWTYNHGIVLGGLAYMYNATNGTGEWETSLTKILNGAKSYFFKDSIMYESACQDYGTCNTDQRTFKSIFSRMLGLTSVMAPFTRDTIDDLIKTSAEAAAKSCNGGTDGHTCGLNWQKQTNDGYYGLGEQMSALEVIQNLLIHDRPAPYKEDNGGTSKGDANAGMNSSTTNVLQNNLNIKKGDRAG
modifications: GST-His6 tag
notes: as for B1

Experiments:
Conditions in all cases: liposome binding signal on yeast proteome chip, Cy3-streptavidin detection
[1] = test system: phosphatidylcholine (PC) liposomes; experiment: Yeast proteome chip probed with PC liposomes
Text: (§1) To identify PI-binding proteins in yeast, liposomes were used as probes because the liposome provides the most relevant physiological condition to assay the interactors. Six types of liposomes were used. Each contains phosphatidylcholine (“PC”) with 1% (w/w) N-(biotinoyl)-1,2-dihexadecanoyl-sn-glycero-3-phosphoethanolamine, triethylammonium salt (biotin DHPE). The biotinylated lipid serves as a label that can be detected by Cy3-streptavidin (21). In addition to PC, the five other liposomes contain either 5% (w/w) PI(3)P, PI(4)P, PI(3,4)P2, PI(4,5)P2, or PI(3,4,5)P3 (FIG. 3A).
(§2) The protein-liposome interaction was assayed as follows. Appropriate amounts of each lipid in chloroform were mixed and dried under nitrogen. The lipid mixture was resuspended in TBS buffer by vortexing. The liposomes were created by sonication. Blocked proteome chips were washed three to five times in PBS buffer, and the extra liquid on the glass surface was removed by tapping the slides vertically on a KIMWIPE™. 200 μl of liposome solution was added to the proteome chip and immediately covered by a hydrophobic plastic cover slip (GRACE BIO-LAB™, USA). After trapped air bubbles were removed, the chip was incubated in a humidity chamber at RT for one hour. To remove the cover slip, the chip was immersed into large volume of PBS buffer (50 ml), so that the slip would float away. The chip was then moved to a second PBS bath (>50 ml) and washed 3×5 min with shaking at RT. After removing extra liquid on the surface of the chip, about 100 μl of Cy3 or Cy5 conjugated streptavidin (PIERCE™, USA; 1:2000 to 1:4000 dilution) was added to the surface and covered by a hydrophobic plastic cover slip (GRACE BIO-LABS™, USA). The chip was incubated for greater than 30 min in the dark at RT. The chip was then washed as described above. To completely remove the liquid on the chip, the chip was spun to dryness at 1500-2000 rpm for 5-10 min at RT.
(§3) • 1. S. Fields, Y. Kohara, D. J. Lockhart, Proc. Natl. Acad. Sci. 96, 8825 (1999); A. Goffeau et al., Science 274, 563 (1996). • 2 P. Ross-Macdonald et al., Nature 402, 413 (1999); J. L., DeRisi, V. R. Iyer, P. O. Brown, Science 278, 680 (1997); E. A. Winzeler et al., Science 285, 901 (1999). P. Uetz et al., Nature 403, 623 (2000); T. Ito et al., Proc. Natl. Acad. Sci. USA. 97, 1143 (2000) • 3 H. Zhu, M. Snyder, Curr. Opin. Chem. Biol. 5, 40 (2001). • 4 M. R. Martzen et al., Science 286, 1153 (1999). • 5 H. Zhu et al., Nat. Genet. 26, 283 (2000). • 6 G. MacBeath, S. L. Schreiber, Science 289, 1760 (2000). • 7 A. Caveman, J. Cell Sci. 113, 3543 (2000). • 8 P. Arenkov et al., Anal. Biochem 278, 123 (2000). • 9 D. A. Mitchell, T. K. Marshall, R. J. Deschenes, Yeast 9, 715 (1993). The expression vector pEGH was created by inserting an RGS-HisX6 epitope tag between the GST gene and the polycloning site of pEG(KG). The yeast ORFs were cloned using the strategy described previously (5), except every step was done in a 96-well format. Plasmid DNAs confirmed by DNA sequencing were reintroduced into both yeast (Y258) and E. coli (DH5a). […] 0.1 mM calcium was present in buffers in all subsequent steps. The chip was washed three times with PBS at RT. Cy3-conjugated streptavidin (Jackson IR, USA) (1:5000 dilution) was added to the chip and incubated for 30 min at RT. After extensive washing, the chip was spun dry and scanned using a microarray scanner; the data was subsequently acquired with the GENEPIX™ array densitometry software (Axon, USA). • 12 S. S. Hook, A. R. Means, Annu. Rev. Pharmacol. Toxicol.41, 471 (2001). • 13 M. S. Cyert, R. Kunisawa, D. Kaim, J. Thorner, Proc. Natl. Acad. Sci. USA 88, 7376 (1991). • 14 D. A. Stirling, K. A. Welch, M. J. Stark, EMBO J. 13, 4329 (1994). • 15 F. Bohl, Kruse, EMBO J. 19, 5514 (2000); E. Bertrand et al., Mol. Cell 2, 437 (1998). • 16 D. C. Winter, E. Y. Choe, R. Li, Proc. Nat. Acad Sci. USA 96, 7288 (1999). • 17 C.

PI(3,4)P2 liposomes = experiment: Yeast proteome chip probed with PI(3,4)P2 liposomes
Text: as §1, §2, §3

PI(4)P liposomes = experiment: Yeast proteome chip probed with PI(4)P liposomes
Text: as §1, §2, §3

PI(3,4,5)P3 liposomes = experiment: Yeast proteome chip probed with PI(3,4,5)P3 liposomes
Text: as §1, §2, §3

PI(4,5)P2 liposomes = experiment: Yeast proteome chip probed with PI(4,5)P2 liposomes
Text: as §1, §2, §3

Molecule | PC [1] | PI(3, 4)P2 (PI(3,4)P2 liposomes) | PI(4)P (PI(4)P liposomes) | PI(3, 4, 5)P3 (PI(3,4,5)P3 liposomes) | PI(4, 5)P2 (PI(4,5)P2 liposomes)
B1 | 25.24 | 31.71 | 37.45 | 15.07 | 8.71
B2 | 22.30 | 7.53 | 23.52 | 33.97 | 
B3 | 21.42 | 10.05 | 33.75 | 14.06 | 14.59
B4 | 18.49 | −0.16 | 21.99 | 4.16 | 25.69
B5 | 6.46 | 7.38 | 12.85 | −0.45 | 1.96
B6 | 4.99 | −0.78 | −0.22 | 3.38 | 
B7 | 127.66 | 48.66 | 19.81 | 60.98 | 
